Data: publication PMC3772987

Legend:
BosR tag-free = BosR tag-free (Borrelia burgdorferi B31, UniProt O51592 1-176, M1R); experiment: fluorescence anisotropy
His6-BosR = His6-BosR (Borrelia burgdorferi B31, UniProt O51592 2-176); experiment: fluorescence anisotropy

B1: FPospAB (dsDNA)
DNA 1: TAATCTTATAATATAATTATACTT
DNA 2: AAGTATAATTATATTATAAGATTA
In the case of B1, the Kd (BosR tag-free) is reported as 307 nM and the Kd (His6-BosR) is reported as 222 nM.

B2: FPospD (dsDNA)
DNA 1: ATAATTGATATTAAAATATAATTGAT
DNA 2: ATCAATTATATTTTAATATCAATTAT
In the case of B2, the Kd (BosR tag-free) is reported as 332 nM and the Kd (His6-BosR) is reported as 262 nM.
